The text below walks through data of the DeepSol protein solubility set.

The data set is described as follows: soluble on expression in E. coli; label from the status in PepcDB or PDB records.
Turning to “MATFVPFVTCLDTGFWNEVNKKKLNDWKLDETPKCISSQLSLHQTEGFKCHLSLSYDSLSSLESTTGLSMSGTLLLYNTIESFKMVDKSDLIRSEAEKIWESITTRKWLQNPRLLSQFFIIAFADLKKFKYYYWTCVPALVYPSEIKQEITPLSSLGADHKILFDFYRKNNFPIFLYSKQSSKMLELSELENNTNPDEICVVVADPSPVAYSAGWMVRNVLAAVAHLHPTWKHCHIISLRSADSIGIKYTWTLPSAECSADGAQNAVPKAVGWERNANDKLQPISVDLSKEFDPKILMERSVDLNLSLIKWRLHPDIQLERYSQLKVLILGAGTLGCNIARCLIGWGVRHISFLDNSTVSYNNPVRQSLSEFEDARLGRGKAETAQAAIQRIFPSIQATAHRLTVPMPGHSIDEKDVPELEKDIAKLEQLVKDHDVVFLALDSREARWLPTVLASRHKKIAISVAIGFDTYVIIRHGIGSRSESVSDVSSSDSVPYSQLSCYFCSDVTAPGNSTFDRTLDQQCTVARPGTSMIASGIAVELLSSVLQYPDPLKTPASHDDNTTVLGAAPHQIRGFLGRFQQILPSVKRFDQCVACGDAIAAQFQQNGWKFVRDVMNSPGRLEEVTGLDELQNSVNAIDIDFEDDEDF”, the “soluble on expression in E. coli” value is recorded as “soluble”.
Under “MATHVAIIGNGVGGFTTAQALRAEGFEGRISLIGDEPHLPYDRPSLSKAVLDGSLERPPILAEADWYGEARIDMLTGPEVTALDVQTRTISLDDGTTLSADAIVIATGSRARTMALPGSQLPGVVTLRTYGDVQVLRDSWTSATRLLIVGGGLIGCEVATTARKLGLSVTILEAGDELLVRVLGRRIGAWLRGLLTELGVQVELGTGVVGFSGEGQLEQVMASDGRSFVADSALICVGAEPADQLARQAGLACDRGVIVDHCGATLAKGVFAVGDVASWPLRAGGRRSLETYMNAQRQAAAVAAAILGKNVSAPQLPVSWTEIAGHRMQMAGDIEGPGDFVSRGMPGSGAALLFRLQERRIQAVVAVDAPRDFALATRLVEARAAIEPARLADLSNSMRDFVRANEGDLT” stands “soluble”; under “MATIRIHDEANTTIENQEEVASFLDSQEVIYEQWDITRLPEHLSEKYDLTEEEKQQILDTFETEIKDISTRRGYKAQDVISLSDSNPKLDELLENFKREHHHTDDEVRFIVSGHGIFVIQGQDGTFFDVRLNPGDLISVPENIRHYFTLQEDRKVVAVRIFVTTEGWVPIYEKDSVNQLEHHHHHH”, “not soluble”.
Under “MATKLTPKQKAQLDELSMSEKIAILLIQVGEDTTGEILRHLDIDSITEISKQIVQLNGTDKQIGAAVLEEFFAIFQSNQYINTGGLEYARELLTRTLGSEEAKKVMDKLTKSLQTQKNFAYLGKIKPQQLADFIINEHPQTIALILAHMEAPNAAETLSYFPDEMKAEISIRMANLGEISPQVVKRVSTVLENKLESLTSYKIEVGGLRAVAEIFNRLGQKSAKTTLARIESVDNKLAGAIKEMMFTFEDIVKLDNFAIREILKVADKKDLSLALKTSTKDLTDKFLNNMSSRAAEQFVEEMQYLGAVKIKDVDVAQRKIIEIVQSLQEKGVIQTGEEEDVIE” stands “not soluble”.
As for “MATLLEQLSTMTVVVADTGDLDAIRKFTPRDATTNPSLILAAAQIPAYQSLIDEALHSSRQLLGNSAAVEEVVHEALDEICVIFGKEILKIVPGRVSTEVDARLSFNTEATIAKAHKLIGLYNDAGITNDRVLIKIASTWEGIKAAEVLEKDGIHCNLTLLFGFSQAVACAEAGVTLISPFVGRILDWYKASTGRDSYAGPEDPGVISVTKIFNYFKTYDYKTEIMGASFRNLDEIIELAGCDLLTISPKLLDQLGSTEAPLKRKLDAVNPVAAESQIHVDKESFESMMRADRMAFEKLDEGIRGFSKAIETLEAQLAHRLAVLEGGAAFCHVVQEIFMLNDLDGDGCITREEWLGSDAVFDALDHDHDGRLLQEDVRSGLGAALALTTA”, the “soluble on expression in E. coli” value is on record as “not soluble”.
With “MATLLFFSKPISDFVLGDKVGFDAKILESNDRILLIKPLQIGVDSNISVIDNEGKIFSFYVFSTTFTSSKHPNLQVFIEDKNYYSNAFLKPQKENMAENAPKDAPTNNKPLKEEKEETKEKEEETITIGDNTNAMKIVKKDIQKGYKALKSSQRKWYCLGICSKKSKLSLMPKEIFNDKQFTYFKFDKRLALSKFPVIYKVVDGYDNPVNTRIVGDYIIAEDVSAKWTLRLGKDYLCIRFVKKAKDE”, the “soluble on expression in E. coli” value was “not soluble”.
Under “MATPEGQAEEKAVKLAAEEINAQGGILGYKVEVVVGDTKLDSNTATSEFRRLATVENADVIIGGFSSGVMTAMMETMAETKTLFLSDASSPAHAQKVEQNYEKYKYWFRVSQNNGSTFALDLADMVKFLRDSGYEVKKVYIIRDEHVWTDPVMAALKPLLEEMGVEIVKDVKIPRGYSEYEQLILEAESLNADLIMPILAISGTGDVLAKQWATLKPNLLLAGHDLAPIDPEFYEKTNGMANYEIFLADGGALVTAPPTEKCREFVEAYKAKYGHYPESHQAYGAYDAVYLYKMVVEMAAKNGEKDPFNPDVLVKYLEKFDASNPVKLTRTIAFYPNHDLMWGDDYVRNWISQWQDGKQYIIYPPSVANGELKLPPWIEK” stands “not soluble”; under “MATVAFQTLGCKVNHYETEAIWQLFKGEGYEKVDFEQMADVYVINTCTVTNTGDKKSRQVIRRAIRKNPDAVICVTGCYAQTSPAEVMAIPGVDIVVGTQDRKKMLEYIEQYKKERQPINGVGNIMKSRVYEELDVPAFTDRTRASLKIQEGCNNFCTFCIIPWARGLMRSRDPKEVIKQAEQLVQAGYKEIVLTGIHTGGYGEDLKDYSLARLLEDLEQVNGLKRIRISSIEASQLTDEVIEVIDRSTKVVRHLHIPLQSGSDTVLKRMRRKYTMAFFAERLERLREALPGLAVTSDVIVGFPGETEAEFQETYDFIAKHKFSELHVFPYSKRTGTPAARMEDQVNEDVKNERVHRLIQLSDQLAKEYASQFEGEVLEMIPEERDKEEPNSGLYVGYTDNYLKVKIPATDEMIGKLVKVKITKAGYPYNEGEFVRVLDEEPQAVAHGLEHHHHHH”, “soluble”.
The value for “MAVDVFITAPSSTPLACEMTISKLVLASGSPRRRELLAQMGYQFEVVVPNVEEKRAAAESPAQYVERLSRDKALAGAALVAAEAVVIGSDTIVVKDQQVLEKPRDFADAKRMLLKLSGSQHQVMTGVSVTCRGITHSVVVTTEVWFKTLSEQEIEAYWQSGEPCDKAGSYGIQGLGGRFVTRIEGSYHAVVGLPLYETDQLLHKF” was “not soluble”; that for “MAVELPKAAIERIFRQGIGERRLSQDAKDTIYDFVPTMAEYVANAAKSVLDASGKKTLMEEHLKALADVLMVEGVEDYDGELFGRATVRRILKRAGIERASSDAVDLYNKLICRATEELGEKAAEYADEDGRKTVQGEDVEKAITYSMPKGGEL” was “soluble”.
In the case of “MAVGKNKGLSKGGKKGGKKKVVDPFSRKDWYDVKAPNMFQTRQIGKTLVNRTQGQRIASDYLKGRVFEVSLADLQKDIDPERSFRKFRLIAEDVQDRNVLCNFHGMDLTTDKYRSMVKKWQTLIEAIVEAKTVDGYLLRVFCIGFTAKDQQSQRKTCYAQQSQVRKIRARMTDIITNEVSGADLKQLVNKLALDSIAKDIEKSCQRIYPLHDVYIRKVKVLKKPRFDVSKLLELHGDGGGKSVEAVVSSEGAVIDRPEGYEPPVQEAVLEHHHHHH”, the “soluble on expression in E. coli” value is reported as “soluble”.
The value for “MAVIVRKWFGLGRLPADLRCQVEAEGLIYLAEYVAVTRRFTGVIPGLRASHSIASYVGALAFTEQRVLGTLSMVPKLAGRVVDARWDGPQAGAATAEISPTGLQLDLDVADVDPKFSGQLALHFKATIGEDVLSRLPRRSLAFDVPAEYVNLAVGVTYSP” was “soluble”; that for “MAVKMKYWTDEVGGERGSLKVELKPFGYRIIPLTQWKTLIAMDDVEVKKGEPEIIEVRPFTIPGGTMVGPLHIMRHALGTVLDVVECGIPTRVEDEKCIQRVVFLPVDDGVVREGDIVGVLKVFFIKTGLISRLFNLKPTKVELREEIVEANITWRDDGNIYREKISTKVFGYTRTHVGVWEPLVADEDVGVRAGDVLRVKIRNVELPPNTVVVPLSISRNPYGVVVDVVQLGKPRRVEEPKNIEQAVFLAVDDGEIKRGDLLGVINVYYVGLKKLEPLIATKEPQDFTLVYRKEEKIIRKKVHLPPFGYHRSPVARWEVVVAAEDKELTKNKPVRVKIKKIKIPANTIVYPMEIMRHSDGVLIDLVSDLPWRVEEGGKVDEAIFLPLFDGKIEKDDLLGVINLYQVELSPVEKIREMYNRFVKLSEEELMKYVEGLQ” was “soluble”.
As to “MAVRVAINGFGRIGRNILRAIVESGRTDIQVVAINDLGPVETNAHLLRYDSVHGRFPKEVEVAGDTIDVGYGPIKVHAVRNPAELPWKEENVDIALECTGIFTSRDKAALHLEAGAKRVIVSAPADGADLTVVYGVNNDKLTKDHLVISNASCTTNCLAPVAQVLNDTIGIEKGFMTTIHSYTGDQPTLDTMHKDLYRARAAALSMIPTSTGAAKAVGLVLPELKGKLDGVAIRVPTPNVSVVDLTFIAKRETTVEEVNNAIREAANGRLKGILGYTDEKLVSHDFNHDSHSSVFHTDQTKVMDGTMVRILSWYDNEWGFSSRMSDTAVALGKLI”, the “soluble on expression in E. coli” value is listed as “soluble”.
Under “MAYAYLFKYIIIGDTGVGKSCLLLQFTDKRFQPVHDLTIGVEFGARMITIDGKQIKLQIWDTAGQESFRSITRSYYRGAAGALLVYDITRRDTFNHLTTWLEDARQHSNSNMVIMLIGNKSDLESRREVKKEEGEAFAREHGLIFMETSAKTASNVEEAFINTAKEIYEKIQEGVFDINNEANGIKIGPQHAATNASHGSNQGGQQAGGGCC” stands “soluble”.
In the case of “MCAHRPATAPDFLLSRSHGSIRTQGAVETFSDPGKAVEALRSGRVELVVGALAFRRDHACALTVPRSVIREEGPLEPHAYYRQGPGSIVNAQVEKLVPSLDKHHARVEAAINTIKSTSLKKVVLARAVDMTFSPAVDPRLIAARLIDLSRNRDGFIADLTPAGEDFAGAM”, the “soluble on expression in E. coli” value is “not soluble”.
For the sequence “MCGRFVITSAPAAIRQLFGYADQPNFPSRYNIAPTQPVPVVIVDEGARRFRLMRWGLIPSWVKDPRMFSLLINARADTIQDKPAFRNAFRRRRCLVPADGYYEWKAGGSRKQPYFIHPAGGGPIGFAALWETWTGPNGEELDTVAIVTTAARGGLADLHDRVPVTIAPHHFARWLETDETDTEAVMALLGPPGEGEFVWHPVSTAVNRTANDNPQLILPIAAEEVEAPPPAVAKPAPPKRAARPKISADDSGQGSLFLEHHHHHH”, the “soluble on expression in E. coli” value is given as “soluble”.
Under “MCKDVSGQNLLVAPDAINHHVKTCRENMRYMHYIAPEYENNTELTSAADIYSFGICSLEIAVIGGLSGCQNGSSEGPVTEDVIEKAIRSLEDPMQQDFIRQCLRKDPAERPSARELLFHQILFEVHSLKLLSAHAIVDSKKYEDVSESAFRIKDNETIAATSKLREMAYCQVAAFQVDLEKFLDDVRNGIYPLTAFAPLAHQPSTTLRAYSNTNPSTLITTDISAPSSTHPSANSTITAETSVNTSLPGQSSQPSGTTTNTNGPSSIGKSASPEAVDKKIGEVTSTESTSKVEVEVNGANVTIGSSNGRDAGSPTPEEEGEPNGERDMRLENRHILEINVHIENEEMSIVLLLEDQMHRQLTTSINKGDNPETLTENLITHGFMCQLDSEGVEKAIAVAFDIRAARIAEGVQEEENETSTRESNSEAPIEHGTSSSITNSVKPIVDSVAPSSQTPTTTTSS” stands “not soluble”.
The value for “MCLAVPGKVIEVNGPVAVVDFGGVKREVRLDLMPDTKPGDWVIVHTGFAIEKLDEKKAMEILEAWAEVEKAMEGF” was “soluble”; that for “MCLILTAWHAHPAYALVVAANRDEFYDRPAAPLAWWSDAPHVLAGRDLAQVVGHAGTWMGMTRDGRFAALTNYRAPSERRPDARSRGELVANFLAAEDASIPAYLDQLKARNGVYNGYNLLTATRDELWWTSNRAEAPRQLAPGVYGLSNALLDTPWFKVRHRVAAFAEALAADTGRHGNAIDVARYLDLLAETREAPLGALPATGVAPEWEKLLSAAFIRSPRYGTRASTVLRIRHDGCFDVTERRFDAQGQIGETRYLGVLDAVTQADTPLEHHHHHH” was “not soluble”.
